The values that follow come from patent US20220213181A1 (Novartis, published 2022).

The target in one experiment is T1, P25 (human).
T1 construct: linear 15-mer from the N-terminal coiled coil domain of human ANGPTL4
T1 peptide: DPEVLHSLQTQLKAQ
In words: linear peptide array on glass (JPT). As for the experimental part: (§1) The ability of selected antibodies of invention, namely NEG276 and NEG318, to bind to linear 15-amino-acid peptides derived from the N-terminal coiled coil domain of human ANGPTL4 was tested. The peptides were immobilized on a glass surface, and the ability of NEG276 and NEG318 to bind to the immobilized peptides was evaluated using experimental methods optimized for linear peptide epitope mapping at JPT Peptide Technologies (Berlin, Germany).

A further experiment concerns the target T2, P28 (human).
T2 construct: linear 15-mer from the N-terminal coiled coil domain of human ANGPTL4
T2 peptide: TQLKAQNSRIQQLFH
In words: linear peptide array on glass (JPT). As for the experimental part:
as §1

For another experiment, the target named is T3, P40 (human).
T3 construct: linear 15-mer from the N-terminal coiled coil domain of human ANGPTL4
T3 peptide: QFGLLDHKHLDHEVA
In words: linear peptide array on glass (JPT). As for the experimental part:
as §1

In another experiment the target is T4, P6 (human).
T4 construct: linear 15-mer from the N-terminal coiled coil domain of human ANGPTL4
T4 peptide: MNVLAHGLLQLGQGL
In words: linear peptide array on glass (JPT). As for the experimental part: as §1

For experiment [1], the target named is T5, Human ANGPTL3(17-460)-FLAG-His-Avi (human, UniProt Q9Y5C1 17-460, biotin on the C-terminal Avi tag (BirA)).
T5 construct: also called full length human ANGPTL3; hANGPTL3
T5 sequence: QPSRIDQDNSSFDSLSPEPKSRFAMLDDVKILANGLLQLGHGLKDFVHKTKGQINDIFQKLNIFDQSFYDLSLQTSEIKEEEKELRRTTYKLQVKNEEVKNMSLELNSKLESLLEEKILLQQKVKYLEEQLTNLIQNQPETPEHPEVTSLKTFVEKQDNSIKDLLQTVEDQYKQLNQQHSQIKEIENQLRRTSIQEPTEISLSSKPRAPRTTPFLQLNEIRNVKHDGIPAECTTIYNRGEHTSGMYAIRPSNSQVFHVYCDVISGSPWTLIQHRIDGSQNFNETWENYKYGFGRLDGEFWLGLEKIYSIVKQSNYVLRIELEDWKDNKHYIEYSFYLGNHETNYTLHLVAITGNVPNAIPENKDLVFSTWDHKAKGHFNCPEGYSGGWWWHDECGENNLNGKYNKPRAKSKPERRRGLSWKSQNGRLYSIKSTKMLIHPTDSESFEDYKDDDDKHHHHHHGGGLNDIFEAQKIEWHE
In words: direct ELISA on MSD streptavidin plate, biotinylated antigen immobilized at 1 nM, antibody at 1 nM, Sulfo-tagged anti-human IgG detection. The protocol: Direct ELISA assays were conducted to characterize antibody binding specificity of selected antibodies of the invention. The assay was performed as follows. A 384-well streptavidin-coated Meso Scale Discovery (MSD) plate was blocked by incubating the plate with 50 μL Blocking Buffer (PBS, pH 7.4, 5% w/v bovine serum albumin) per well at 22° C. for 1 hour with constant shaking (600 rpm). The blocked MSD plate was then washed 3 times with Wash Buffer (PBS, pH 7.4 and 0.05% v/v Tween-20) using a plate washer (BioTek). Following washing, biotinylated human ANGPTL4 proteins diluted in Assay Buffer (PBS, pH 7.4 without CaCl₂ or MgCl₂, 0.5% w/v fatty acid-free bovine serum albumin and 0.02% v/v Tween-20) were immobilized on the surface by incubation at 1 nM concentration (15 μL per well) at 22° C. for one hour: full length human ANGPTL4 (hANGPTL4), human ANGPTL4 coiled-coil domain (hANGPTL4-CCD) and full length human ANGPTL3 (hANGPTL3). The plate was then washed 3 times as described earlier. Antibody diluted to 1 nM concentration in Assay Buffer was then applied to the MSD plate (15 μL per well), and the plate was incubated for 1 hour at 22° C. with constant shaking (600 rpm). Bound antibodies were detected by adding 15 μL per well of a 1:500 dilution of Sulfo-tagged goat anti-human IgG. The plate was then incubated for one hour with constant shaking (600 rpm). The plate was washed 3 times, and then 15 μL/well of 1× MSD read buffer T was added and the plate was developed using a Sector Imager 6000 (Meso Scale Discovery). The data were transferred to Microsoft Excel for analysis and plotted using GraphPad Prism v6. […] An ANGPTL3-specific reference antibody was used as a positive control for the ANGPTL3 binding assay (FIG. 2).

Experiment [2] addresses T6, Human ANGPTL4(26-406)-FLAG-His6-Avi (human, UniProt Q9BY76 24-406, biotin on the C-terminal Avi tag (BirA) where the protein is immobilised).
T6 construct: the text calls it 20 amino acids), then QP, ANGPTL4 26-406 and FLAG-His6-Avi; the signal peptide is left out here; also called full length human ANGPTL4; hANGPTL4
T6 sequence: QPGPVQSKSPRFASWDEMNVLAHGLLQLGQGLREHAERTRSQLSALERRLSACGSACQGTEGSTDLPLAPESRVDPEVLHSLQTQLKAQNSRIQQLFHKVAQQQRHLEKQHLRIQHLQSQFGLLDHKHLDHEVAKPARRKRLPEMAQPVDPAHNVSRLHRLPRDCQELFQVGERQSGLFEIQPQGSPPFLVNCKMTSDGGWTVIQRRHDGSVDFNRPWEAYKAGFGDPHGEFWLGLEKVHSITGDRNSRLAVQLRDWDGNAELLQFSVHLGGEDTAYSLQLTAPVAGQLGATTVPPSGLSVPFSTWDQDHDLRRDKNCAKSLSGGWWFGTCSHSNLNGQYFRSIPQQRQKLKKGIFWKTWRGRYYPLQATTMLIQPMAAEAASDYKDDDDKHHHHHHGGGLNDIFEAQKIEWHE
In words: Octet (ForteBio) kinetics, biotinylated antigen on streptavidin sensor, IgG in solution. As for the experimental part:
Dissociation constants (KD) were determined for selected antibodies of the invention by using an Octet (ForteBio) kinetic binding assay. ForteBio 10× Kinetics Buffer (ForteBio, catalog number 18-5032) was diluted 10-fold with DPBS (Life Technologies, catalog number 14190-136), and the resulting solution was added (0.2 ml per well) to a 96-well plate (Greiner, catalog number 65520). Streptavidin sensors (ForteBio, catalog number 18-5020) were immersed in the solution and equilibrated for at least 10 min at room temperature. In a second 96-well plate (Greiner, catalog number 65520), sensors were washed in 1× Kinetics buffer, and then immersed in 200 ul of 25 nM biotinylated human ANGPTL4 or a biotinylated reference protein (for background subtraction) for 1000 sec at […] room temperature. […] The sensors were then transferred to a well containing 200 μl 1× Kinetics buffer, and antibody dissociation was monitored for 1200 seconds. Background-corrected association and dissociation curves were globally fitted by Octet Software (ForteBio) to generate association (kₐ) and dissociation (kd) rate constants, which in turn were used to calculate equilibrium dissociation constants (KD).
(In BLI a coated tip is dipped into the sample, and binding shifts an interference pattern.)

Experiment [3] addresses T6, Human ANGPTL4(26-406)-FLAG-His6-Avi. In words: cell-based or functional assay.

B1: NEG276 (antibody, human IgG1, kappa)
heavy: not shown
light: EIVMTQSPATLSVSPGERATLSCKASQDIGSNLNWLQQKPGQAPRRLIYAVSNRGPGIPARFSGSRSGSEYTLTISSLQSEDFAVYYCLQYASSPWTFGQGTKVEIKRTVAAPSVFIFPPSDEQLKSGTASVVCLLNNFYPREAKVQWKVDNALQSGNSQESVTEQDSKDSTYSLSSTLTLSKADYEKHKVYACEVTHQGLSSPVTKSFNRGEC
notes: humanized, hIgG1/kappa, parental antibody 19C16
The term Kd denotes the concentration at which binding is half-saturated. A higher Kd goes with weaker binding. As a reminder, the koff is the first-order rate constant of dissociation. A lower koff goes with slow dissociation. As usually defined, the kon is the second-order rate constant of association. Higher therefore signals fast association. For the molecule B1, the binding result in the experiment with P25 was “no binding”; in the experiment with P28 it was “no binding”; with P40 it was “no binding”; with P6, “no binding”; in experiment [1] it was “no binding (tested: 1 nM)”. Further, in experiment [2], the dissociation constant Kd came out at 0.023 nM. The same molecule gave a koff in experiment [2] of 8e-06 s⁻¹. For the same molecule, the kon in experiment [2] came out at 340000 M⁻¹ s⁻¹. In addition, in experiment [3], the “EC50 of the antibody-mediated increase in lipoprotein lipase enzyme activity (reversal of LPL inhibition by ANGPTL4)” value was 0.6 nM.

B2: NEG276-LALA (antibody, human IgG1, kappa, L234A L235A)
heavy: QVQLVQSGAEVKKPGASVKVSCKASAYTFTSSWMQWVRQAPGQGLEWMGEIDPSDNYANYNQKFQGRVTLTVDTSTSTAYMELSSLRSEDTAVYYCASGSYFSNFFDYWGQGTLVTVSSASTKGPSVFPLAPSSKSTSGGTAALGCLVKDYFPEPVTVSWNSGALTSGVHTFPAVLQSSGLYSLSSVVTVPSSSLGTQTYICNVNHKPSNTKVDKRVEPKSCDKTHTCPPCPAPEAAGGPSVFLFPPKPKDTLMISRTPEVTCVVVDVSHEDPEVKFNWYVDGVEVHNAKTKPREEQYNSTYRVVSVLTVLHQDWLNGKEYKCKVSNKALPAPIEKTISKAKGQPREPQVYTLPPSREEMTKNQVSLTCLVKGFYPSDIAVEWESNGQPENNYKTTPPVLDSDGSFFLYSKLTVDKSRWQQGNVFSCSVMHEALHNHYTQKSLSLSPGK
light: EIVMTQSPATLSVSPGERATLSCKASQDIGSNLNWLQQKPGQAPRRLIYAVSNRGPGIPARFSGSRSGSEYTLTISSLQSEDFAVYYCLQYASSPWTFGQGTKVEIKRTVAAPSVFIFPPSDEQLKSGTASVVCLLNNFYPREAKVQWKVDNALQSGNSQESVTEQDSKDSTYSLSSTLTLSKADYEKHKVYACEVTHQGLSSPVTKSFNRGEC
On to B2, for which the “EC50 of the antibody-mediated increase in lipoprotein lipase enzyme activity (reversal of LPL inhibition by ANGPTL4)” value in experiment [3] came out at 0.7 nM.

B3: NEG278 (antibody, human IgG1, kappa, V domains shown)
VH: QVQLVQSGAEVKKPGASVKVSCKASAYTFTSSWMQWVRQAPGQGLEWMGEIDPSDNYANYNQKFQGRVTLTVDTSTSTAYMELSSLRSEDTAVYYCASGSYFSNFFDYWGQGTLVTVSS
VL: EIVMTQSPATLSVSPGERATLSCKASQDIGSNLNWLQQKPGQAPRRLIYAASVREPGIPARFSGSRSGSEYTLTISSLQSEDFAVYYCLQYASSPWTFGQGTKVEIKR
notes: as for B1
Take B3: in experiment [1], the binding result is reported as “no binding (tested: 1 nM)”. The molecule also registered an association rate constant (kon) in experiment [2] of 300000 M⁻¹ s⁻¹. Moreover, the “EC50 of the antibody-mediated increase in lipoprotein lipase enzyme activity (reversal of LPL inhibition by ANGPTL4)” value in experiment [3] stood at 0.7 nM.

B4: NEG315 (antibody, human IgG1, kappa, V domains shown)
VH: QVQLVQSGAEVKKPGASVKVSCKASGYTFTNYWITWVRQAPGQGLEWMGDFYPGGGNTNYNAKLQGRVTLTVDTSTSTAYMELRSLRSDDTAVYYCARSPPQVAPFDYWGQGTLVTVSS
VL: DIQMTQSPSSLSASVGDRVTITCQASEYIYNWLGWYQQKPGKAPKLLISGASGLETGVPSRFSGSGSGKDYTFTISSLQPEDIATYYCQQYWSTPWTFGQGTKLEIKR
notes: humanized, hIgG1/kappa, parental antibody 37P1
Take B4: the binding result in experiment [1] is “no binding (tested: 1 nM)”. In experiment [2], the affinity, expressed as Kd, was 0.029 nM; the dissociation rate constant (koff) stood at 7.9e-06 s⁻¹; the association rate constant (kon) worked out at 280000 M⁻¹ s⁻¹. Moreover, the “EC50 of the antibody-mediated increase in lipoprotein lipase enzyme activity (reversal of LPL inhibition by ANGPTL4)” value in experiment [3] amounted to 3 nM.

B5: NEG319 (antibody, human IgG1, kappa, V domains shown)
VH: QVQLVQSGAEVKKPGASVKVSCKASGYTFTSFWITWVRQAPGQGLEWMGDIYPGGANTNYNEKLQGRVTLTVDTSTSTAYMELRSLRSDDTAVYYCARSPPQVGPFDYWGQGTLVTVSS
VL: DIQMTQSPSSLSASVGDRVTITCQASEYIINWLAWYQQKPGKAPKLLISGATGLETGVPSRFSGSGSGKDYTFTISSLQPEDIATYYCQQYWSIPWTFGQGTKLEIKR
notes: humanized, hIgG1/kappa, parental antibody 14P18
On to B5, for which the binding result in experiment [1] is recorded as “no binding (tested: 1 nM)”. In experiment [2], this molecule registered a dissociation constant Kd of 0.036 nM, a koff of 1e-05 s⁻¹ and a kon of 280000 M⁻¹ s⁻¹. The “EC50 of the antibody-mediated increase in lipoprotein lipase enzyme activity (reversal of LPL inhibition by ANGPTL4)” value in experiment [3] was 0.5 nM.

B6: NEG313 (antibody, human IgG1, kappa, V domains shown)
VH: QVQLVQSGAEVKKPGASVKVSCKASGYTFNNYWITWVRQAPGQGLEWMGDFYPGGGSTNYNAKLQGRVTLTVDTSTSTAYMELRSLRSDDTAVYYCARSPPQVAPFDYWGQGTLVTVSS
VL: DIQMTQSPSSLSASVGDRVTITCQASDYIYHWLGWYQQKPGKAPKLLISGASGLETGVPSRFSGSGSGKDYTFTISSLQPEDIATYYCQQYWSTPWTFGQGTKLEIKR
notes: as for B4
Turning to B6, the binding result in experiment [1] is listed as “no binding (tested: 1 nM)”. In experiment [2], this molecule had a dissociation constant (Kd) of 0.04 nM, a koff of 1.1e-05 s⁻¹ and a kon of 280000 M⁻¹ s⁻¹. Also, the “EC50 of the antibody-mediated increase in lipoprotein lipase enzyme activity (reversal of LPL inhibition by ANGPTL4)” value in experiment [3] amounted to 3 nM.

B7: NEG310 (antibody, human IgG1, kappa, V domains shown)
VH: QVQLVQSGAEVKKPGASVKVSCKASGYTFTSYTMHWVRQAPGQGLEWMGYINPSSGYTKYNQKFQGRVTMTADKSTSTAYMELSSLRSEDTAVYYCAEGWLLLAMDYWGQGTLVTVSS
VL: EAVVTQSPATLSLSPGERATLSCRSSTGAVTTSNYAIWVQEKPGQAPRGLIGGTNNRAPGIPARFSGSLSGDDATLTISSLQPEDFAVYFCALWYSDHWVFGQGTKVEIKR
notes: humanized, hIgG1/kappa, parental antibody 17B1
Turning to B7, the binding result in experiment [1] is “no binding (tested: 1 nM)”. In experiment [2], the affinity, expressed as Kd, was 0.025 nM; the koff turned out to be 1.1e-05 s⁻¹; the kon was 220000 M⁻¹ s⁻¹. The “EC50 of the antibody-mediated increase in lipoprotein lipase enzyme activity (reversal of LPL inhibition by ANGPTL4)” value in experiment [3] turned out to be 1.6 nM.
